Data taken from patent publication US20180155451A1 (published 2018).

T1: FcγRIIb extracellular domain with C-terminal His tag (human, UniProt P31994 43-217)
T1 construct: extracellular domain; Soluble receptor expressed in FreeStyle293 cells, used as analyte in Biacore; also called FcgRIIb; 2b; not shown: His tag at the C terminus
T1 sequence (looked up): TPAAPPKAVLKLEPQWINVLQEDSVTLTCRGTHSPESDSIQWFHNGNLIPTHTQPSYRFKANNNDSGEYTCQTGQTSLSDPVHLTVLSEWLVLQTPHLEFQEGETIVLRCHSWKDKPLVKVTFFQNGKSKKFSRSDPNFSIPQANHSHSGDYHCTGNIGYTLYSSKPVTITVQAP


Experiments:
[1] = biological target: T2, FcγRIIIa extracellular domain with C-terminal His tag (human, UniProt P08637 17-208); assay: SPR; He/Con_3a divided by He/Con_2b (FcγRIIIa over FcγRIIb)
T2 construct: extracellular domain; also called FcgRIIIa; 3a; not shown: His tag at the C terminus
Procedure: (§1) Analysis of interaction between objective antibody and the FcγR was carried out using Biacore T100 (GE Healthcare). HBS-EP+ (GE Healthcare) was used as the running buffer, and the measurement temperature was set to 25° C. Chips produced by immobilizing the antigen peptide by the amine coupling method to a Series S Sencor Chip CM5 (GE Healthcare), or alternatively, chips produced by allowing preliminarily biotinylated antigen peptides to interact with and immobilize onto a Series S Sensor Chip SA (certified) (GE Healthcare) were used. Antibodies of interest were captured onto an antigen peptide-immobilized chip, and allowed to interact to each FcγR diluted with running buffer. To regenerate and repeatedly use the chip, the antibodies captured on the chip were washed off by reacting 10 mM glycine-HCl, pH 1.5.
(§2) The FcγR-binding activity of each antibody was assessed primarily using as an indicator the FcγR-binding activity and dissociation constant for FcγR.

[2] = biological target: T2, FcγRIIIa extracellular domain with …; assay: SPR (Biacore), antibody captured on antigen peptide chip, FcγR as analyte
Procedure: as §1, §2

[3] = biological target: T1, FcγRIIb extracellular domain with …; assay: as above
Procedure: as §1, §2

T2 sequence (P08637 17-208): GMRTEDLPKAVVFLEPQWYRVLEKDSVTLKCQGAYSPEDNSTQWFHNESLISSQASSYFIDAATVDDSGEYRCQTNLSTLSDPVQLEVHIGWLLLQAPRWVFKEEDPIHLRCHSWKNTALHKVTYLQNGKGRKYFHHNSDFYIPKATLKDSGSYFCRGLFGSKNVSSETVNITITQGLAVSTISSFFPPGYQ

| He_3a/2b (IIIa/IIb) [1] [ratio] | He/Con_3a [2] | He/Con_2b [3] | Binder |
| --- | --- | --- | --- |
| 0.7 | 77.3 relative binding (GpH7-A5/GpH7-B3/GpL16-k0 = 100) | 110 relative binding (GpH7-A5/GpH7-B3/GpL16-k0 = 100) | GpH7-A5/GpH7-B3 variant P331_04F/GpL16-k0 (antibody, human IgG1, kappa, Heterodimerized anti-glypican-3 IgG1; P331F (EU) only in the GpH7-B3 chain; also called He Ab) heavy 1: not shown heavy 2: not shown light: DIVMTQSPLSLPVTPGEPASISCQASESLVHSNRNTYLHWYLQKPGQSPQLLIYKVSNRFSGVPDRFSGSGSGTDFTLKISRVEAEDVGVYYCSQNTHVPPTFGQGTKVEIERTVAAPSVFIFPPSDEQLKSGTASVVCLLNNFYPREAKVQWKVDNALQSGNSQESVTEQDSKDSTYSLSSTLTLSKADYEKHKVYACEVTHQGLSSPVTKSFNRGEC |
| 0.71 | 78.6 relative binding (GpH7-A5/GpH7-B3/GpL16-k0 = 100) | 111 relative binding (GpH7-A5/GpH7-B3/GpL16-k0 = 100) | GpH7-A5/GpH7-B3 variant P331_20W/GpL16-k0 (antibody, human IgG1, kappa, Heterodimerized anti-glypican-3 IgG1; P331W (EU) only in the GpH7-B3 chain; also called He Ab) heavy 1: not shown heavy 2: not shown light: DIVMTQSPLSLPVTPGEPASISCQASESLVHSNRNTYLHWYLQKPGQSPQLLIYKVSNRFSGVPDRFSGSGSGTDFTLKISRVEAEDVGVYYCSQNTHVPPTFGQGTKVEIERTVAAPSVFIFPPSDEQLKSGTASVVCLLNNFYPREAKVQWKVDNALQSGNSQESVTEQDSKDSTYSLSSTLTLSKADYEKHKVYACEVTHQGLSSPVTKSFNRGEC |
| 0.72 | 81.9 relative binding (GpH7-A5/GpH7-B3/GpL16-k0 = 100) | 114 relative binding (GpH7-A5/GpH7-B3/GpL16-k0 = 100) | GpH7-A5/GpH7-B3 variant P331_15Y/GpL16-k0 (antibody, human IgG1, kappa, Heterodimerized anti-glypican-3 IgG1; P331Y (EU) only in the GpH7-B3 chain; also called He Ab) heavy 1: not shown heavy 2: not shown light: DIVMTQSPLSLPVTPGEPASISCQASESLVHSNRNTYLHWYLQKPGQSPQLLIYKVSNRFSGVPDRFSGSGSGTDFTLKISRVEAEDVGVYYCSQNTHVPPTFGQGTKVEIERTVAAPSVFIFPPSDEQLKSGTASVVCLLNNFYPREAKVQWKVDNALQSGNSQESVTEQDSKDSTYSLSSTLTLSKADYEKHKVYACEVTHQGLSSPVTKSFNRGEC |
| 0.74 | 73.4 relative binding (GpH7-A5/GpH7-B3/GpL16-k0 = 100) | 99.2 relative binding (GpH7-A5/GpH7-B3/GpL16-k0 = 100) | GpH7-A5/GpH7-B3 variant P331_18N/GpL16-k0 (antibody, human IgG1, kappa, Heterodimerized anti-glypican-3 IgG1; P331N (EU) only in the GpH7-B3 chain; also called He Ab) heavy 1: not shown heavy 2: not shown light: DIVMTQSPLSLPVTPGEPASISCQASESLVHSNRNTYLHWYLQKPGQSPQLLIYKVSNRFSGVPDRFSGSGSGTDFTLKISRVEAEDVGVYYCSQNTHVPPTFGQGTKVEIERTVAAPSVFIFPPSDEQLKSGTASVVCLLNNFYPREAKVQWKVDNALQSGNSQESVTEQDSKDSTYSLSSTLTLSKADYEKHKVYACEVTHQGLSSPVTKSFNRGEC |

More lines, now with the values behind:

| Binder | He_3a/2b (IIIa/IIb) [1] [ratio] | He/Con_3a [2] | He/Con_2b [3] |
| --- | --- | --- | --- |
| GpH7-A5/GpH7-B3 variant L328_20W/GpL16-k0 (antibody, human IgG1, kappa, Heterodimerized anti-glypican-3 IgG1; L328W (EU) only in the GpH7-B3 chain; also called He Ab) heavy 1: not shown heavy 2: not shown light: DIVMTQSPLSLPVTPGEPASISCQASESLVHSNRNTYLHWYLQKPGQSPQLLIYKVSNRFSGVPDRFSGSGSGTDFTLKISRVEAEDVGVYYCSQNTHVPPTFGQGTKVEIERTVAAPSVFIFPPSDEQLKSGTASVVCLLNNFYPREAKVQWKVDNALQSGNSQESVTEQDSKDSTYSLSSTLTLSKADYEKHKVYACEVTHQGLSSPVTKSFNRGEC | 0.16 | 37.4 relative binding (GpH7-A5/GpH7-B3/GpL16-k0 = 100) | 235 relative binding (GpH7-A5/GpH7-B3/GpL16-k0 = 100) |
| GpH7-A5/GpH7-B3 variant L328_15Y/GpL16-k0 (antibody, human IgG1, kappa, Heterodimerized anti-glypican-3 IgG1; L328Y (EU) only in the GpH7-B3 chain; also called He Ab) heavy 1: not shown heavy 2: not shown light: DIVMTQSPLSLPVTPGEPASISCQASESLVHSNRNTYLHWYLQKPGQSPQLLIYKVSNRFSGVPDRFSGSGSGTDFTLKISRVEAEDVGVYYCSQNTHVPPTFGQGTKVEIERTVAAPSVFIFPPSDEQLKSGTASVVCLLNNFYPREAKVQWKVDNALQSGNSQESVTEQDSKDSTYSLSSTLTLSKADYEKHKVYACEVTHQGLSSPVTKSFNRGEC | 0.35 | 68.3 relative binding (GpH7-A5/GpH7-B3/GpL16-k0 = 100) | 193 relative binding (GpH7-A5/GpH7-B3/GpL16-k0 = 100) |
| GpH7-A5/GpH7-B3 variant L328_19Q/GpL16-k0 (antibody, human IgG1, kappa, Heterodimerized anti-glypican-3 IgG1; L328Q (EU) only in the GpH7-B3 chain; also called He Ab) heavy 1: not shown heavy 2: not shown light: DIVMTQSPLSLPVTPGEPASISCQASESLVHSNRNTYLHWYLQKPGQSPQLLIYKVSNRFSGVPDRFSGSGSGTDFTLKISRVEAEDVGVYYCSQNTHVPPTFGQGTKVEIERTVAAPSVFIFPPSDEQLKSGTASVVCLLNNFYPREAKVQWKVDNALQSGNSQESVTEQDSKDSTYSLSSTLTLSKADYEKHKVYACEVTHQGLSSPVTKSFNRGEC | 0.77 | 81.1 relative binding (GpH7-A5/GpH7-B3/GpL16-k0 = 100) | 105 relative binding (GpH7-A5/GpH7-B3/GpL16-k0 = 100) |
| GpH7-A5/GpH7-B3 variant L328_16H/GpL16-k0 (antibody, human IgG1, kappa, Heterodimerized anti-glypican-3 IgG1; L328H (EU) only in the GpH7-B3 chain; also called He Ab) heavy 1: not shown heavy 2: not shown light: DIVMTQSPLSLPVTPGEPASISCQASESLVHSNRNTYLHWYLQKPGQSPQLLIYKVSNRFSGVPDRFSGSGSGTDFTLKISRVEAEDVGVYYCSQNTHVPPTFGQGTKVEIERTVAAPSVFIFPPSDEQLKSGTASVVCLLNNFYPREAKVQWKVDNALQSGNSQESVTEQDSKDSTYSLSSTLTLSKADYEKHKVYACEVTHQGLSSPVTKSFNRGEC | 0.67 | 54.3 relative binding (GpH7-A5/GpH7-B3/GpL16-k0 = 100) | 80.6 relative binding (GpH7-A5/GpH7-B3/GpL16-k0 = 100) |
| GpH7-A5/GpH7-B3 variant L328_13S/GpL16-k0 (antibody, human IgG1, kappa, Heterodimerized anti-glypican-3 IgG1; L328S (EU) only in the GpH7-B3 chain; also called He Ab) heavy 1: not shown heavy 2: not shown light: DIVMTQSPLSLPVTPGEPASISCQASESLVHSNRNTYLHWYLQKPGQSPQLLIYKVSNRFSGVPDRFSGSGSGTDFTLKISRVEAEDVGVYYCSQNTHVPPTFGQGTKVEIERTVAAPSVFIFPPSDEQLKSGTASVVCLLNNFYPREAKVQWKVDNALQSGNSQESVTEQDSKDSTYSLSSTLTLSKADYEKHKVYACEVTHQGLSSPVTKSFNRGEC | 0.48 | 71.7 relative binding (GpH7-A5/GpH7-B3/GpL16-k0 = 100) | 149 relative binding (GpH7-A5/GpH7-B3/GpL16-k0 = 100) |
